Data published in patent EP4592317A1 (ABlink Biotech Co., Ltd., dated 2025).
“And” between values parts separate entries of the source, which are not always exact repeats. Equal entries are not always repeated.

Key:
[1] = target: T1, Monkey 4-1BB extracellular region recombinant protein (his-tag) (monkey); assay: ELISA, coated monkey 4-1BB-his 200 ng/well; antibody 0 µg/ml (background well)
T1 construct: extracellular domain; also called Monkey4-1BB, his-tag

[2] = target: T2, Mouse 4-1BB extracellular region recombinant protein (his-tag) (mouse, UniProt P20334 24-187); assay: ELISA, coated mouse 4-1BB-his 200 ng/well; antibody 3.33 µg/ml
T2 construct: extracellular domain; also called Mouse4-1BB, his-tag; not shown: his-tag
T2 sequence (looked up): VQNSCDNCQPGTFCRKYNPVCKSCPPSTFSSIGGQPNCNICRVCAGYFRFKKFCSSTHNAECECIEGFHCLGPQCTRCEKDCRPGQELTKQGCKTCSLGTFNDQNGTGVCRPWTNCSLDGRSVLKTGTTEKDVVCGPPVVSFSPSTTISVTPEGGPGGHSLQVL

[3] = target: T3, Human 4-1BB extracellular domain recombinant protein (his-tag) (human, UniProt Q07011 24-186); assay: ELISA, coated human 4-1BB-his 200 ng/well; antibody 3.33 µg/ml
T3 construct: extracellular domain; also called Human4-1BB, his-tag; human 4-1BB extracellular region recombinant protein; not shown: his-tag

[4] = target: T2, Mouse 4-1BB extracellular region …; assay: ELISA, coated mouse 4-1BB-his 200 ng/well; antibody 0.37 µg/ml
[5] = target: T2, Mouse 4-1BB extracellular region …; assay: ELISA, coated mouse 4-1BB-his 200 ng/well; antibody 0 µg/ml (background well)
[6] = target: T3, Human 4-1BB extracellular domain …; assay: ELISA, coated human 4-1BB-his 200 ng/well; antibody 1.11 µg/ml
[7] = target: T3, Human 4-1BB extracellular domain …; assay: SPR (Biacore 8K), VHH-hFc captured on Protein A chip, human 4-1BB-his as analyte, 25°C, 1:1 fit
[8] = target: T1, Monkey 4-1BB extracellular region …; assay: ELISA, coated monkey 4-1BB-his 200 ng/well; antibody 3.33 µg/ml
[9] = target: T2, Mouse 4-1BB extracellular region …; assay: ELISA, coated mouse 4-1BB his-tag 200 ng/well
[10] = target: T3, Human 4-1BB extracellular domain …; assay: ELISA, coated human 4-1BB-his 200 ng/well; antibody 0 µg/ml (background well)
[11] = target: T1, Monkey 4-1BB extracellular region …; assay: ELISA, coated monkey 4-1BB-his 200 ng/well; antibody 1.11 µg/ml
[12] = target: T3, Human 4-1BB extracellular domain …; assay: ELISA, coated human 4-1BB-his 200 ng/well
[13] = target: T2, Mouse 4-1BB extracellular region …; assay: ELISA, coated mouse 4-1BB-his 200 ng/well; antibody 0.12 µg/ml
[14] = target: T1, Monkey 4-1BB extracellular region …; assay: ELISA, coated monkey 4-1BB-his 200 ng/well; antibody 0.37 µg/ml
[15] = target: T2, Mouse 4-1BB extracellular region …; assay: ELISA, coated mouse 4-1BB-his 200 ng/well; antibody 1.11 µg/ml
[16] = target: T3, Human 4-1BB extracellular domain …; assay: ELISA, coated human 4-1BB-his 200 ng/well; antibody 10.0 µg/ml
[17] = target: T3, Human 4-1BB extracellular domain …; assay: ELISA, coated human 4-1BB-his 200 ng/well; antibody 0.12 µg/ml
[18] = target: T2, Mouse 4-1BB extracellular region …; assay: ELISA, coated mouse 4-1BB-his 200 ng/well; antibody 10.0 µg/ml
[19] = target: T1, Monkey 4-1BB extracellular region …; assay: ELISA, coated monkey 4-1BB-his 200 ng/well
[20] = target: T3, Human 4-1BB extracellular domain …; assay: ELISA, coated human 4-1BB-his 200 ng/well; antibody 0.37 µg/ml
[21] = target: T3, Human 4-1BB extracellular domain …; assay: ELISA, coated human 4-1BB-his 200 ng/well; antibody 0.041 µg/ml
[22] = target: T2, Mouse 4-1BB extracellular region …; assay: ELISA, coated mouse 4-1BB-his 200 ng/well; antibody 0.041 µg/ml
[23] = target: T1, Monkey 4-1BB extracellular region …; assay: ELISA, coated monkey 4-1BB-his 200 ng/well; antibody 0.014 µg/ml
[24] = target: T1, Monkey 4-1BB extracellular region …; assay: ELISA, coated monkey 4-1BB-his 200 ng/well; antibody 10.0 µg/ml
[25] = target: T2, Mouse 4-1BB extracellular region …; assay: ELISA, coated mouse 4-1BB-his 200 ng/well; antibody 0.014 µg/ml
[26] = target: T1, Monkey 4-1BB extracellular region …; assay: ELISA, coated monkey 4-1BB-his 200 ng/well; antibody 0.041 µg/ml
[27] = target: T3, Human 4-1BB extracellular domain …; assay: ELISA, coated human 4-1BB-his 200 ng/well; antibody 0.014 µg/ml
[28] = target: T1, Monkey 4-1BB extracellular region …; assay: ELISA, coated monkey 4-1BB-his 200 ng/well; antibody 0.12 µg/ml

B1: 137-18 VHH-hFc recombinant antibody (Fc fusion)
chain: QVQLVESGGGLVHPGGSLRLSCAASGFIFSLYTMSWVRQAPGKGLEWVSDINSGGDSTDYADSVKGRFTISRDNAKSTLYLQMNSLKPEDTAVYYCAKDYPLGQREDYWGQGTQVTVSS
notes: VHH fragment inserted into vector pFclG with human IgG1 Fc tag, expressed in HEK293F; also called CD137-18; not shown: human IgG1 Fc tag of the eukaryotic expression vector pFclG
absorbance at 450 nm [1]: 0.051 | absorbance at 450 nm [2]: 0.219 | absorbance at 450 nm [3]: 1.73 | absorbance at 450 nm [4]: 0.199 | absorbance at 450 nm [5]: 0.203 | absorbance at 450 nm [6]: 1.31 | Kd [7]: 3.36 nM | koff [7]: 0.000792 s⁻¹ | kon [7]: 236000 M⁻¹ s⁻¹ | absorbance at 450 nm [8]: 2.05 | binding result [9]: no binding (tested: 0.014-10 µg/mL) | absorbance at 450 nm [10]: 0.119 | absorbance at 450 nm [11]: 1.19 | EC50 [12]: 4.06 µg/mL and 50.8 nM | absorbance at 450 nm [13]: 0.192 | absorbance at 450 nm [14]: 0.707 | absorbance at 450 nm [15]: 0.214 | absorbance at 450 nm [16]: 2.93 | absorbance at 450 nm [17]: 0.562 | absorbance at 450 nm [18]: 0.288 | EC50 [19]: 4.36 µg/mL and 54.5 nM | absorbance at 450 nm [20]: 0.732 | absorbance at 450 nm [21]: 0.451 | absorbance at 450 nm [22]: 0.182 | absorbance at 450 nm [23]: 0.325 | absorbance at 450 nm [24]: 3.3 | absorbance at 450 nm [25]: 0.188 | absorbance at 450 nm [26]: 0.392 | absorbance at 450 nm [27]: 0.399 | absorbance at 450 nm [28]: 0.433
